Assay results published in US20230398228A1, “ERIBULIN-BASED ANTIBODY-DRUG CONJUGATES AND METHODS OF USE” (EISAI R&D MANAGEMENT CO., LTD., priority 2016, published 2023).
Read-outs that look alike come from different tables or passages of the source.

Legend:
A431 cells = test: Crystal Violet cytotoxicity assay (Example 4), A431 (parental); type: cell-based, human; details: mean of replicate experiments, read-out: Cytotoxicity IC50 (nM), A431 (FR^neg, MSLN^neg)
Description: Test reagents were serial diluted 1:3 in 2 mL deep-well dilution plates, starting at 200 nM (10 dilutions total). […] Medium was then discarded. […] Plates were read at 570 nm. Data was analyzed using GraphPad Prism 6. […]
MAL-PEG2-Val-Cit-PAB-eribulin (ER-001159569) was conjugated to eight different anti-human mesothelin antibodies (Table 1). Binding affinities of the parental antibodies were determined by BIAcore analysis, as described above in section 1.6.1. Aggregation levels for all anti-human mesothelin ADCs were determined by SEC-HPLC and the DAR was analyzed using HIC-HPLC. In vitro potency was evaluated using a Crystal Violet cell-based cytotoxicity assay in A3 (A431 stabily transfected with human mesothelin (MSLN), MSLN^hi), OVCAR3 (human ovarian, MSLN^hi), HEC-251 (human endometroid, MSLN^med), H226 (human lung squamous cell mesothelioma, MSLN^lo), and A431 parental (MSLN^neg) cells.

NCI-H2110 cells [1] = test: Crystal Violet cytotoxicity assay (Example 4), NCI-H2110; type: cell-based, human; details: mean of replicate experiments, read-out: Cytotoxicity IC50 (nM), NCI-H2110 (FR^med, MSLN^med)
Description: (§1) Test reagents were serial diluted 1:3 in 2 mL deep-well dilution plates, starting at 200 nM (10 dilutions total). […] Medium was then discarded. […] Plates were read at 570 nm. Data was analyzed using GraphPad Prism 6.

[2] = biological target: Recombinant human folate receptor alpha (Homo sapiens, UniProt P15328); test: ELISA, folate receptor alpha; type: binding; details: MORAb-003 and its ADCs
Description: Coating solution was discarded and the plates were washed three times using 1×PBS with 0.05% Tween-20 (PBST) buffer. Plates were blocked in 300 μL blocking buffer (1% BSA in PBST) at room temperature for 2 hours on an orbital shaker. […] Blocking buffer was discarded and 100 μL/well of diluted antibody was added to the plates. Plates were incubated at room temperature for 2 hours on an orbital shaker. Antibody solution was discarded and plates were washed three times using PBST. 100 μL/well of goat-anti-human IgG (H+L)-HRP (1:10,000 dilution in blocking buffer) solution was added to the plates, and plates were incubated at room temperature for 1 hour on an orbital shaker. Secondary antibody solution was discarded and plates were washed three times using PBST. 100 μL/well of QuantaBlu fluorogenic peroxidase substrate working solution (Thermo, Cat No. 15169) was added to the plates, and plates were incubated at room temperature for 30 min. Fluorescence was read at excitation 325 nm/emission 420 nm using a SpectraMax M5 (Molecular Devices). Data was analyzed using SoftMaxPro 5.4.2 software with 4-parameter fitting.

IGROV1 cells [3] = test: Crystal Violet cytotoxicity assay (Example 4), IGROV1; type: cell-based, human; details: mean of replicate experiments, read-out: Cytotoxicity IC50 (nM), IGROV1 (FR^hi, MSLN^neg)
Description: as §1

NCI-H2110 cells [4] = details: read-out: IC50 on NCI-H2110; Example 1
Description: (§2) Typically, test reagents were serial diluted 1:4 in 2 mL deep-well dilution plates, starting at 1 μM (10 dilutions total). 100 μL of diluted samples were added to the cell plates (starting concentration of test samples at 500 nM). […] Medium was discarded, plates were washed once with 200 μL DPBS, stained with 50 μL of 0.2% Crystal Violet solution at room temperature for 15 min, and then washed extensively with tap water. Plates were air-dried, and Crystal Violet was dissolved with 200 μL of 1% SDS solution. Plates were read at 570 nm. Data was analyzed using GraphPad Prism 6. Assays were performed using a seeding density of 1,000 cells per well and compound exposure was for a total of 5 days. When shorter-term exposure was desired, medium containing cytotoxic agents was removed after 4 hours and replaced with fresh growth medium prior to 5-day incubation. For OVCAR3, CaOV3, and NCI-H2110, cells were seeded at 3,000 cells/well and incubated for 5 days with ADC.
(§3) SJSA-1 cells are a human osteosarcoma tumor cell line that are negative for folate receptor alpha.
(§4) Typically, test reagents were serially-diluted 1:4 in 2 mL deep-well dilution plates, starting at 1 μM (10 dilutions total). 100 μL of diluted samples were added to the cell plates (starting concentration of test samples at 100 nM). […] Medium was discarded, plates were washed once with 200 μL DPBS, stained with 50 μL of 0.2% Crystal Violet solution at room temperature for 15 min, and then washed extensively with tap water. Plates were air-dried, and Crystal Violet was dissolved with 200 μL of 1% SDS solution. Plates were read at 570 nm. Data was analyzed using GraphPad Prism 6.

OVCAR3 cells = test: Crystal Violet cytotoxicity assay (Examples 1 and 2), OVCAR3; details: read-out: Cytotoxicity (IC50) OVCAR3; OVCAR3 cells; mean of replicate experiments, where performed
Description: as §2, §3
Typically, test reagents were serially-diluted 1:4 in 2 mL deep-well dilution plates, starting at 1 μM (10 dilutions total). 100 μL of diluted samples were added to the cell plates (starting concentration of test samples at 100 nM). […] Plates were read at 570 nm. Data was analyzed using GraphPad Prism 6.

SJSA-1 cells [5] = test: Serum stability assay, cytotoxicity readout on SJSA-1
Description: (§5) Following incubation, samples were frozen and stored at −20° C. until evaluation in cytotoxicity and binding assays. For cytotoxicity analyses, samples were evaluated on IGROV1 and SJSA-1 cells, as detailed in section 1.4.1. For binding assessment, samples were evaluated using a solution-based MSD ECL assay.
(§6) ER-001161319 is maytansine-based ADC comprising the same cleavable linker as VCP-eribulin, maleimido-PEG2-Val-Cit-pAB. PBS and serum controls were included to correct for any serum effects on assay performance.

IGROV1 cells [6] = test: Serum stability assay, cytotoxicity readout on IGROV1
Description: as §5, §6

IGROV1 cells [7] = test: Crystal Violet cytotoxicity assay (Examples 1 and 2), IGROV1
Description: as §2
(§7) In vitro potency of prepared ADCs was assessed using a Crystal Violet assay as detailed in section 1.4.1.
as §3
Typically, test reagents were serially-diluted 1:4 in 2 mL deep-well dilution plates, starting at 1 μM (10 dilutions total). […] Plates were read at 570 nm. Data was analyzed using GraphPad Prism 6.

SJSA-1 cells [8] = test: Crystal Violet cytotoxicity assay (Examples 1 and 2), SJSA-1
Description: as §2, §7, §3, §4

[9] = SEC-HPLC aggregation analysis; type: physicochemical
Description: The antibody aggregation was analyzed by size-exclusion, high-performance liquid chromatography (SEC-HPLC) using an Agilent 1100. The mAb was diluted to 1 mg/mL in DPBS. The antibody (20 μL) was injected onto a TSKgel® SuperSW guard column (4.6 mm×3.5 cm, 4 μm pore size, Tosoh Bioscience), followed by a TSKgel® SuperSW3000 column (4.6 mm×30 cm, 4 μm pore size), eluted from the column with 0.1 M sodium phosphate containing 0.15 M NaCl and 0.05% NaN3, at pH 7.4, at a flow rate of 0.3 mL/min for 20 min. All data were analyzed using Agilent ChemStation software. Percent aggregation was calculated as [PAaggregate/PAtotal]*100, where PA=integrated peak area.
ADC was diluted to 1 mg/mL in DPBS. ADC (10 μL) was then injected onto an Advanced SEC 300A guard column (4.6 mm×3.5 cm, 2.7 μm pore size, Agilent), followed by a AdvancedBio 300A column (4.6 mm×30 cm, 2.7 μm pore size). ADC was eluted from the column with 0.1 M sodium phosphate containing 0.15 M NaCl and 5% IPA, pH 7.4 at a flow rate of 0.25 mL/min for 28 min. All data were analyzed using Agilent ChemStation software. Percent aggregation was calculated as [PAaggregate/PAtotal]*100, where PA=integrated peak area.

[10] = read-out: Cell-based cytotoxicity assay, EC50, Human Serum, 0 hr-PBS
[11] = read-out: Cell-based cytotoxicity assay, EC50, Human Serum, 0 hr-Serum
[12] = read-out: Cell-based cytotoxicity assay, EC50, Human Serum, 4 hr at 37° C.
[13] = read-out: Cell-based cytotoxicity assay, EC50, Human Serum, 24 hr at 37° C.
[14] = read-out: Cell-based cytotoxicity assay, EC50, Mouse Serum, 0 hr-Serum
[15] = read-out: Cell-based cytotoxicity assay, EC50, Mouse Serum, 4 hr at 37° C.
[16] = read-out: Cell-based cytotoxicity assay, EC50, Mouse Serum, 24 hr at 37° C.
[17] = read-out: Cell-based cytotoxicity assay, EC50, Mouse Serum, 48 hr at 37° C.
[18] = read-out: Cell-based cytotoxicity assay, EC50, PBS, 0 hr-PBS
[19] = read-out: Cell-based cytotoxicity assay, EC50, PBS, 0 hr-Serum
[20] = read-out: Cell-based cytotoxicity assay, EC50, PBS, 4 hr at 37° C.
[21] = read-out: Cell-based cytotoxicity assay, EC50, PBS, 24 hr at 37° C.
[22] = read-out: Cell-based cytotoxicity assay, EC50, PBS, 48 hr at 37° C.

Recombinant human folate receptor alpha, sequence (P15328 25-234): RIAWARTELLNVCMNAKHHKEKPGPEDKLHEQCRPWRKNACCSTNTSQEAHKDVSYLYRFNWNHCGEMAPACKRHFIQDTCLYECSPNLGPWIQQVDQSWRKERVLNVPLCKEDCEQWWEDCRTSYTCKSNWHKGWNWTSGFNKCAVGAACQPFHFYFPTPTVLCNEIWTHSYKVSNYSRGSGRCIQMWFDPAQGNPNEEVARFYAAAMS

For MORAb003-DBCO-PEG4 eribulin, the IC50 (A431 cells) was over 100 nM, the IC50 (NCI-H2110 cells [1]) was 46.3 nM and the “Antigen Binding ELISA, EC50” value [2] was 13.30 ng/mL. The IC50 (IGROV1 cells [3]) was 1.32 nM.
Substance MORAb-003-PEG-pAB-duostatin 3 [M-0285] has an IC50 (NCI-H2110 cells [4]) of 14 nM, an IC50 (OVCAR3 cells) of 8.8 nM and an EC50 (SJSA-1 cells [5]; [10]) of over 10 nM. It also gave an EC50 (SJSA-1 cells [5]; [11]) of over 10 nM, an EC50 (SJSA-1 cells [5]; [12]) of over 10 nM and an EC50 (SJSA-1 cells [5]; [13]) of over 10 nM. It also gave an EC50 (SJSA-1 cells [5]; read-out: Cell-based cytotoxicity assay, EC50, Human Serum, 48 hr at 37° C.) of over 10 nM, an EC50 (SJSA-1 cells [5]; read-out: Cell-based cytotoxicity assay, EC50, Mouse Serum, 0 hr-PBS) of over 10 nM and an EC50 (SJSA-1 cells [5]; [14]) of over 10 nM. The EC50 (SJSA-1 cells [5]; [15]) was over 10 nM, the EC50 (SJSA-1 cells [5]; [16]) was over 10 nM and the EC50 (SJSA-1 cells [5]; [17]) was over 10 nM. It also gave an EC50 (SJSA-1 cells [5]; [18]) of over 10 nM, an EC50 (SJSA-1 cells [5]; [19]) of over 10 nM and an EC50 (SJSA-1 cells [5]; [20]) of over 10 nM. It also gave an EC50 (SJSA-1 cells [5]; [21]) of over 10 nM, an EC50 (SJSA-1 cells [5]; [22]) of over 10 nM and an EC50 (IGROV1 cells [6]; [10]) of 0.089 nM. It also gave an EC50 (IGROV1 cells [6]; [11]) of 0.078 nM, an EC50 (IGROV1 cells [6]; [12]) of 0.075 nM and an EC50 (IGROV1 cells [6]; [13]) of 0.074 nM. The EC50 (IGROV1 cells [6]; [14]) was 0.049 nM, the EC50 (IGROV1 cells [6]; [15]) was 0.049 nM and the EC50 (IGROV1 cells [6]; [16]) was 0.044 nM. For the same substance, the EC50 (IGROV1 cells [6]; [17]) was 0.051 nM, the EC50 (IGROV1 cells [6]; [18]) was 0.074 nM and the EC50 (IGROV1 cells [6]; [19]) was 0.063 nM. For the same substance, the EC50 (IGROV1 cells [6]; [20]) was 0.065 nM, the EC50 (IGROV1 cells [6]; [21]) was 0.059 nM and the EC50 (IGROV1 cells [6]; [22]) was 0.043 nM. For the same substance, the “cytotoxicity and specificity on IGROV1 cell line, in words” value (IGROV1 cells [7]; Example 1 screening, IGROV1 versus SJSA-1) was “specific cytotoxicity”, the IC50 (IGROV1 cells [7]; read-out: Cytotoxicity (IC50) IGROV1, IGROV1 cells, mean of replicate experiments, where performed) was 0.3 nM and the “killing of FR-negative SJSA-1 cells (off-target), in words” value (SJSA-1 cells [8]; Example 1 screening) was “little cytotoxicity”. For the same substance, the IC50 (SJSA-1 cells [8]; read-out: Cytotoxicity (IC50) SJSA-1, SJSA-1 cells, mean of replicate experiments, where performed) was over 100 nM.
In the case of MORAb003-DBCO-PEG4 VCP eribulin, the IC50 (A431 cells) is reported as over 100 nM, the IC50 (NCI-H2110 cells [1]) is reported as 4.28 nM and the “Antigen Binding ELISA, EC50” value [2] is reported as 16.00 ng/mL. It also gave an IC50 (IGROV1 cells [3]) of 0.038 nM.
In the case of MORAb003-DBCO-PEG2 eribulin, the IC50 (A431 cells) is reported as over 100 nM, the IC50 (NCI-H2110 cells [1]) is reported as 38.1 nM and the “Antigen Binding ELISA, EC50” value [2] is reported as 19.10 ng/mL. For the same substance, the IC50 (IGROV1 cells [3]) was 4.25 nM.
For MORAb003-PEG2-eribulin, the IC50 (A431 cells) was over 100 nM, the IC50 (NCI-H2110 cells [1]) was 38.3 nM and the “Antigen Binding ELISA, EC50” value [2] was 6.96 ng/mL. For the same substance, the IC50 (IGROV1 cells [3]) was 0.33 nM.
For MORAb003-PEG4-eribulin, the IC50 (A431 cells) was over 100 nM, the IC50 (NCI-H2110 cells [1]) was 21.6 nM and the “Antigen Binding ELISA, EC50” value [2] was 9.31 ng/mL. For the same substance, the “SEC-HPLC Analysis % Frag.” value [9] was 0%, the “SEC-HPLC Analysis % Monomer” value [9] was 89.76% and the IC50 (IGROV1 cells [3]) was 0.277 nM.
